Values quoted from earlier work, collected in article PMC2586657.

Molecular target: alpha-factor (Saccharomyces cerevisiae) (UniProt P01149)

Substance: alpha-factor receptor (from UniProt D6VTK4)
- Kd: 5 nM
